Assay: soluble on expression in E. coli; label from the status in PepcDB or PDB records

Sequence	soluble on expression in E. coli
MFISDKSRPTDFYKDDHHNSSTTSTTRDMMIDVLTTTNESVDLQSHHHHNHHNHHLHQSQPQQQILLGESSGEDHEVKAPKKRAETWVQDETRSLIMFRRGMDGLFNTSKSNKHLWEQISSKMREKGFDRSPTMCTDKWRNLLKEFKKAKHHDRGNGSAKMSYYKEIEDILRERSKKVTPPQYNKSPNTPPTSAKVDSFMQFTDKGFDDTSISFGSVEANGRPALNLERRLDHDGHPLAITTAVDAVAANGVTPWNWRETPGNGDDSHGQPFGGRVITVKFGDYTRRIGVDGSAEAIKEVIRSAFGLRTRRAFWLEDEDQIIRCLDRDMPLGNYLLRLDDVCKTHLAGLAIRVCHYDESNQLPVHSEEKIFYTEEDYREFLARQGWSSLQVDGFRNIENMDDLQPGAVYRGVR	soluble
MFIYCIPLISQSMIPMALDKTINVMKVTGMFAATYFTGDNRTPFFAFIICLKSFKLENMDQPPKNKSNIFPAVEDSLLLEHHHHHH	not soluble
MFKGSIPALITPFTDNGSVDEKAFAAHVEWQIAEGSNGLVPVGTTGESPTLSHDEHKRVVELCIEVAAKRVPVIAGAGSNNTDEAIELALHAQEAGADALLVVTPYYNKPTQKGLFAHFSAVAEAVKLPIVIYNIPPRSVVDMSPETMGALVKAHKNIIGVKDATGKLDRVSEQRISCGKDFVQLSGEDGTALGFNAHGGVGCISVTANVAPRLCSEFQAAMLAGDYAKALEYQDRLMPLHRAIFMEPGVCGTKYALSKTRGGNRRVRSPLMSTLEPATEAAIDAALKHAGLMN	not soluble
MFKRVGIFVALVTLSLIFNQPATAGRTVEDFQVWGNITALGNFGFVNPGNPDLKKFRWWMEGQGRFGNDSSQFTQAIIRPGLGYAITDKIIIWAGYAWIPSDEPLVPKSGLPFDEHRIWQQVTWADEFSFGKLSLRSRFEQRFFDHNAPVSGSDDVAYRFRQLVKLAIPVAMIDPNLTFIIQNELFIGLNTVSNPGFISRGFDQNRAFVGLGYKVHQNATVELGYMNQFIDRRHNPRPDQMMHNFAVNLFLNF	not soluble
MFKTIDTNQKDVKLTVFSSDEKSFMVTATLVEKAGHAFLINSKFTQSDSKEIVEYLKKNNLSLDKIFIIHGDPDYYFGLESIKAVYPEAIAYATESTVEHIVHSVLGKLKVWKDALGENAPSNVVLPQVFKEKAIDFQGLTFELVGLEHYRTSLFNKELKVLIGGIDVFNEIHVFLADTSSKAAMEAWIENLKVLQALHADIIVPSHGSIEKSLNNQALTATMDYLRTAVQASEESGTSKDFVAKLEAAYPDYANKGVLELSAKVVTKEMPWGLEHHHHHH	soluble
MFNHVTVLLKETVDGLDIKPDGTYVDCTLGGGGHSSYLLSQLTEGGRLIAFDQDEIAIQNAKEKFSSYGEQFITVKSNFRYLSEKLQELGITEVDGILFDLGVSSPQLDTPERGFSYHHDAPLDMRMDQDAPLTAYDVVNSWSYEQLVRIFFQYGEEKFSKQIARKIEAYRENKAIETTGELVELIKEGIPAPARRTGGHPAKRVFQAIRIAVNDELKVFEEALESAIEMVKPGGRVSVITFHSLEDRICKTTFKRNSTTPQLPPGLPIIPDEFKPKLKLITRKPILPSDIELEENNRARSAKLRIAEKR	not soluble
MFNRGNTRVDVSSEPGTSGRYPERMIDQLPANYPCAKLKLDQFFLQWLSEHQDLVSTLVEDIQAGRPIHAPTAPVGPSPLSPSTAHMIFASTPPISPSKTRSPGTPLSPARRSTTTLGGSQKRGPLVSIPQFYFPTQSSNAGQGSDPATRDFLQRAEAAYKTDGGAAGLGQKAFVKMMQEVCELPSMVAYSLFKRLTGCEAGEEEGAAVPRDTFIKFWTGRGLVTAPPPKRAFDSLRPDGQDYLTFADFWPMMECVLRYHPGLEFLAETQEFQRKYAETVIHRIFYSLNKCGSGRLTFREFRSGELMDALYALDRENDINKILKFFSYEHFYVIYCKFWELDQDHDFQLDKTDLAHYSNCALSYVIVDRIFEEAPRKFKAGTPPGKMCYEDFVWFILSEEDKTTDTALTYWFRCVDLDGDGVIRPREMLYFYEEQLRRLEGWNQEPVQFEDLLCQLHDMLSPAKEGAFTLRDLKRTKPQSGLFFSSLFSLHKFVGFENRDPFAQRAEAAEFTGLSDWDKFAKIEYFRLASEDDQQDTAGGAMDTDEQI	not soluble
MFPLNDLSLKTQPVQLNKVTSNTESTIKQHELVSDDAIINELSSELVSCLGNGKFTPISEDSKLFNMLSEFKLLHSEYFEWGDYSLWFQDFSIYNKIGFIMIEKIRELVTHPFGINLEHHHHHH	not soluble
MFPSFITHIQSPNSHHHYSSPSFPFSSDFLESFDESFLINQFLLQQQDVAANVVESPWKFCKKLELKKKNEKCVDGSTSQEVQWRRTVKKRDRHSKICTAQGPRDRRMRLSLQIARKFFDLQDMLGFDKASKTIEWLFSKSKTSIKQLKERVAASEGGGKDEHLQVDEKEKDETLKLRVSKRRTKTMESSFKTKESRERARKRARERTMAKMKMRLFETSETISDPHQETREIKITNGVQLLEKENKEQEWSNTNDVHMVEYQMDSVSIIEKFLGLTSDSSSSSIFGDSEECYTSLSSVRGTISAAGNSNVLTKNPN	not soluble
MFPVVDDVKAKELGLEVVYNLELPLRPERQIYRNLEDLLPKDVVEKVGRLDIVGDIAIISIPDELMPRKGVIVEAIRKLYPKIKVIARRGFHTGVYRVRRLEVIWGENRLQTIHKENGVLLKIDLSKVFFNPRMKGERYRLAQLIKDGERILIPFAGVLPYALVIARFRKVDIVAVELNDEAVKLAQENVLLNKDKLKGKISIIHGDVFDVLPKLPSFDRVISPTPKGVDALALTLSKAKRFLHYYDFIHEDKLGEFKEKIIKECQKQGKECKVKVRKVADYKPHVYKVCADIEIK	soluble
MFQSSAAPAPQTADVTNPFGNFAAPSAFPTNVPPPAAHSAPFGVQPAPQHSAAPFYANLHQAPPMQSQAPNGHQAAPFGYPNAHPDDLARMTAQMSLNQQGAPAGWNTTTSAVSNNPFGATSAPQPMYTAPMGMYQQPFGAQPMWNPAMAAYGQQYGYGQPVPPQQQHQIQLVHAAMAAKNAAQAQQAQAASADPFGL	not soluble
MFRILTINPGSTSTKLSIFEDERMVKMQNFSHSPDELGRFQKILDQLEFREKIARQFVEETGYSLSSFSAFVSRGGLLDPIPGGVYLVDGLMIKTLKSGKNGEHASNLGAIIAHRFSSETGVPAYVVDPVVVDEMEDVARVSGHPNYQRKSIFHALNQKTVAKEVARMMNKRYEEMNLVVAHMGGGISIAAHRKGRVIDVNNALDGDGPFTPERSGTLPLTQLVDLCFSGKFTYEEMKKRIVGNGGLVAYLGTSDAREVVRRIKQGDEWAKRVYRAMAYQIAKWIGKMAAVLKGEVDFIVLTGGLAHEKEFLVPWITKRVSFIAPVLVFPGSNEEKALALSALRVLRGEEKPKNYSEESRRWRERYDSYLDGILRHHHHHH	soluble
MFRLGTTPRATTYDPDARIGEVASRFGLPTRVLIEIVRTESFQRSLARVTSGKPVVLDLRELDSDLASWIATHARLVEPALRELVRTVAPDVEPRVRFRGLPHRFRRVERIRPMDGALISIEGVVREVRGAERLEHAIVDTGSELVAVRLHGHRLGPGLRVEILGIVRSATLDALEVHKKDPIPEVHPDPAELEEFRELADKDPLTTFARAIAPLPGAEEVGKMLALQLFSCVGKNSERLHVLLAGYPVVCSEILHHVLDHLAPRGVYVDLRRTELTDLTAVLKEDRGWALRAGAAVLADGGILAVDHLEGAPEPHRWALMEAMDKGTVTVDGIALNARCAVLAAINPGEQWPSDPPIARIDLDQDFLSHFDLIAFLGVDPRPGEPEEQDTEVPSYTLLRRYLLYAIREHPAPELTEEARKRLEHWYETRREEVEERLGMGLPTLPVTRRQLESVERLAKAHARMRLSDDVEPEDVDIAAELVDWYLETAMQIPGGDEIRISSLKP	soluble
MFRTITSRLAFSVRQAEETVKPRIAYAQRSGRRIKEKVALMQAKRKEAGETGAPEKPGKFVLKTGKGTRDYGPAQSALRNSVLQTVTETFNRYGAETIDTPVFELRDVLMGKYGEEGGKLVYDLQDQGGELLSLRYDLTVPFARYLAMNKITNITRYQIAKVYRRDQPVMSRGRYREFYQCDFDIAGQYDLMLPEAECLGIVDELLTKLEIGEFFINLNHRLILEGMFAVSGIPAKDFKTICSSVDKLDKTPWEDVEQEMINEKFLTKEQTGKLGELVRFRELNSDLNNLELLEKMSQLPDLGQNDKFKKGAEELKVLIEYLNVDGVTTVRYEPSLARGLDYYTGAIYEAVAPKALEGTAVENSEDTAGQPVGVGSVAAGGRYDGLVKMFDSKANVPCCGVSFGIERLFAIMEARQKVAIRTTQTEVYVASAQKNLVRDRKKLVKMLRSAGIKTEMALKANPKLLTQFQYAEERRIPLAIVIGEQELKDGVVKLRNVVTRDEQTIKLDQLITAVRDTLAAL	not soluble

From the DeepSol protein solubility set
